In the supplement of paper PMC9170038:

Test system: K4 kissing-loop RNA reporter
Experiment: apparent KD of K4 kissing-loop reporter; higher = weaker reporter binding
Conditions: Eterna round: R107
Experimental: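 RNA-MaP round R107: designed RNA switches with theophylline, tryptophan, arginine or FMN aptamers are transcribed on-chip within common flanks. They are titrated with a labelled K4 kissing-loop RNA reporter in RNA-MaP buffer (100 mM Tris pH 7.5, 80 mM KCl, 4 mM MgCl2), without ligand or with the indicated ligand. Median apparent KD per design.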

[1] = input ligand: theophylline 20 uM
[2] = input ligand: tryptophan 2.4 mM
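Further: bound reporter read as fluorescence of individual clusters on recovered sequencing chips by microscopy, with normalized cluster intensities fitted with a binding model.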

Sequence | apparent KD of K4 kissing-loop reporter (input ligand: FMN 200 uM) [nM] | apparent KD of K4 kissing-loop reporter (input ligand: arginine 13.2 mM) [nM] | apparent KD of K4 kissing-loop reporter (input ligand: none) [nM] | apparent KD of K4 kissing-loop reporter [1] [nM] | apparent KD of K4 kissing-loop reporter [2] [nM]
UGUGUUGUUUUGAUGUUUGGUGUUGCUUGGCAGGAUAUCGUAGAGGCGAGAAGGGCUUGUGAGCGGUAUGAGUGAUGUUUGUAGG [zwwrmullin] | 485 | 282 | 455 | 416 | 336
UUUGGUUUCUCGGCCGCCACUCGUUGGUUAUGGGCUUCAGGGAUAUAGUGAUGUUAUGUAUAGAAGAGGACCGGGAGAAGGUUUG [ExTryptoB.Dt] | 343 | 343 | 318 | 408 | 301
UUGUUUUACUGAAGGAGCGGCAAUUGAUACGUAGAUAUAGUGAUGUUAUAUAAGAUAGAGAGCCAGGUAGGUCGCAGAUUUGUUU [ExArgB.U] | 221 | 193 | 188 | 183 | 173
CGCCGGAAGGCGAGCGCUCCCACUCCGGAAGGAGCGCCCGAAAGGGCAGGUAGGUCGCCGGAGUGAUGUUCCGGUGGAGGGCUCG [#2 Exclusion - Arginine A Attempt #29 (Inspired by Omei)] | 125 | 119 | 121 | 371 | 187
UAUUAAUUGACGGCCGCCACUAUGGUGAUUUAUUUGUUUGAGUGAUGUUUUGAUGUUUGAUUUUGUAGGACCGGGUUAUGUGUUA [pokcmullin] | 962 | 738 | 853 | 748 | 680
UCCACGCUUAGAGGAUAUCGGAUUAGAGUGAUGUUCUAAAGAAGCCCAGUGAUGUUGGAUGGUAUACGAGAAGGCUGAGGCGUGG [Same State FMN B GF 3] | 229 | 629 | 725 | 588 | 492
GCCGUAGAUGGAAGGAGCGAGUCCAAACCAUAUUGCUGAAAAUUCGAGUGAUGUUCGUAAGCUCAGGUAGGUCGCCAUCUACGGC | 206 | 184 | 209 | 161 | 187
AUUCUAUUGUGAAGGAGCGCGUAUAGUAGUGAUGUUACUAUAAUGAUAGAUACUUAAUUCUCGCAGGUAGGUCGCACAAUAUAUA [JR_Nu_ExcArginiB_Sub024] | 117 | 77.5 | 98.8 | 85 | 89.8
UUUGUAUCGGGAAGGAGCGUGAAUGAUAAUGAAUAUAGUGAUGUUAUAUAUAAGAACGAAUCACAGGUAGGUCGCCCGGAUGACU [SSArgB.O] | 747 | 555 | 515 | 729 | 364
UUUUAGGUAUCUGAUACCAGAGAAAAUAUAUGUAGUGAUGUUAUAUACAAAAUAAUUAAGCUCCCUUGGCAGCAGUUUUAAUUUU [AstrosExc-TheB#5] | 872 | 730 | 902 | 763 | 633
GUUUCUUGGAAACAAGGACCGCUAACCGAAGGAGCGAGUGAAAACUCAGGUAGGUCGCGGUAGCGGAGUGAUGUUCCGCGUUUAC [Excluson Arginine A GF 15] | 91.3 | 129 | 123 | 150 | 99.8
AGGUCCGAGCCCGUAAGGGCUCGGACCUGUUAGGAUAUGACGUUAUUCAGAAGGGAUGGGUGGAGUGAUGUUCCACCCGCAAGGG [#2 Same State - FMN A Attempt #10 (HarryS)] | 98.8 | 102 | 93.2 | 91.7 | 95.7
CCCGGGUCGUCAGGAUAUGAGUGCAGUGAUGUUGCACGGGUCUUUGCAGGCCCUGGUGAGGCGUACUCAGAAGGGACGCCAGGUC [Atazazaed] | 250 | 124 | 145 | 130 | 133
CAUAUCAGAUAAGGAUAUAUGGCUCCUCGAGUCCAGUGAUGUUGGGCAACGUUUCAGUGGUGGAUUAUAGAAGGUAUUCACAGAC [theeternabot_sameState_KL_FMN_B_9] | 297 | 250 | 276 | 272 | 258
GAUUCUGUUCGAAAGAACGGAAUCACGGAAGGAGCGAGAGAAAUCUCAGGUAGGUCGCCGAAUUUUUGAUAGUGAUGUUAUCAUU [Arginine A K4 2] | 422 | 353 | 388 | 408 | 426
GCCUAGCAGGGAAGGAGCGGCAUAGGCAUAGAUAAUAUGCAGUUAGUGAUGUUAACACUAUGCCAGGUAGGUCGCCCUGCUAGGC [KL-SSArg B8] | 201 | 95.4 | 192 | 120 | 125
UAGACCAGUGAUGUUGGUUCCAAGACGGAUACCAGACUGGCAGAAGUCCCUUGGCAGCUGUAGACCUUGUGAGCUACAAGGUCGG [Theo A SS t2] | 923 | 184 | 440 | 170 | 295
CGUAAGGAUUGACGACUGCAGAGCAAAAUAAAGGAUAUCGCAGCGUCGAGAAGGUUAUCGUGCGCCAGUGAUGUUGGCGGUAGUC [theeternabot_sameState_KL_FMN_A_22] | 84.1 | 135 | 108 | 181 | 87
UCUGCAAAGUCGGCCGCCACUCCGGGCCCUAUAAAUGGGCGCAGUGAUGUUGCGGCUAGGCCUCUGAGGACCGGGACUUUAUAGA [Anarisgema] | 37.4 | 45.8 | 184 | 88.3 | 175
GCUCGGGAGUGAUGUUCCAAGUGGUGUUAACGAGGACCGGUACGGCCGCCACUCGAUACGGCCGGGCCGUAGGAUAAACUGGAGC [Same State - Tryptophan A (Freestyle 13)] | 193 | 123 | 154 | 174 | 152
GCCUAGCAGGGAAGGAGCGGCAUAAGCAUAGAUAAUAUGCAGUUAGUGAUGUUAAUACUAUGCCAGGUAGGUCGCCCUGCUAGGC [KL-SSArg B7] | 752 | 457 | 688 | 623 | 537
AUUAUAAAGGCGGCCGCCACUAGUGAUGUUAGUGACUUAUGUAUUAUCAUAAGAAUAAAAUAAAAUAGGACCGGGCCAAAAUAUU [AstrosExTryB#3] | 527 | 384 | 452 | 448 | 483

Sequence | apparent KD of K4 kissing-loop reporter (input ligand: FMN 200 uM) [nM] | apparent KD of K4 kissing-loop reporter (input ligand: arginine 13.2 mM) [nM] | apparent KD of K4 kissing-loop reporter (input ligand: none) [nM] | apparent KD of K4 kissing-loop reporter [1] [nM] | apparent KD of K4 kissing-loop reporter [2] [nM]
GUAUAAGUGGGCGAUACCAGCUGUCGGUAGUGAUGUUAUUCAGCAGUCAGGAAGUUCGCUAGCCCUUGGCAGCGCCAGUGGUGAC [theeternabot_exclusion_KL_Theo_B_19] | 383 | 324 | 416 | 351 | 341
GCCUUAUAUCCAGCUACAGCUCUUUUUGGUCGAGGACCGGUACGGCCGCCACUCGAAUGAUAGUGAUGUUAUCGUUUUGUACUAA [JR_Nu_ExcTryptoA_Sub024] | 97.9 | 112 | 108 | 101 | 54.7
GCGAACAUUCGCAGUGAUGUUGCGACGGAAGGAGCGCGUGAAAACGCAGGUAGGUCGCCGACAAAAUUAAUUUUAAUGUGUUCGC [Arginine A K4 27] | 373 | 440 | 488 | 471 | 315
UAAUAUAACCGAAGGAGCGCGUGGGCGCAGUGAUGUUGCGCCCGACAUCACUUCAACUAAACGCAGGUAGGUCGCGGUAAUAAUA [Arginine B (Excl) V1] | 134 | 83.1 | 104 | 84.2 | 98.4
AUUAACCUUUUAGCUAUAUUUUUAUGUGAUACCAGACAUGGCAUAGUCCCUUGGCAGCACAUUAUAUUUACGAGUGAUGUUCGAA [JR_SSTheophyA_Sub026] | 243 | 250 | 261 | 271 | 194
GCAGUGAUGUUGCGGAUGUACAGUGGGAUACGAGGACCGGUACGGCCGCCACUCGUACAGAACAAGCUAAUACAUCGAUAGGUGA [XII] | 265 | 281 | 339 | 373 | 301
UAACUCUUGCAGUGAUGUUGCAAGUAAGCUCAGGAUAUCAGGAAACUGAGAAGGGAGUAUCCUGAGCUUCUGCAAGAGCUCAGAA [KL-SSFMN-A5] | 227 | 83.2 | 362 | 68.6 | 97.3
GGUGCUGUCUGUGCCGCCCUCCUCGUUCCUCGAGGACCGGUACGGCCGCCACUCGAGUGAUGUUUGGGUAGCGAUCCCUGCUAGC [Bdazzled - #16 Exc. Tryptophan A] | 792 | 719 | 1060 | 801 | 696
AGACUACCACACUGUCAAUAGACAGUGUACUAGGAUAUGCUGAUAAGCAGAAGGAGUGAUGUUCCUGGGUAGUCAAUAAAAUAAU [FmnAX 13 U28+G67] | 507 | 388 | 486 | 514 | 404
UAGUCCUAGUGAUGGUUAUCACGUGGUGGGCGAGGACCGGUACGGCCGCCACUCGACUUUGCAGUGAUGUUGCAAUCCGGACAAU [Exclusion - Tryptophan A (Freestyle 17)] | 194 | 215 | 240 | 224 | 258
GGAUUGCCAGUGAUGUUGGCAUAAUCUGAAGGAGCGCGUGAAAACGCAGGUAGGUCGCAGAACCUUGCCAACUGAUCGAAAGAUC [Ex Arginine A K4 30] | 145 | 165 | 155 | 185 | 150
AGACUACCACACUGUCAAUAGACAGUGAGCUAGGAUAUGCUGAUAAGCAGAAGGAGUGAUGUUCCAAGGUAGUCAAUAAAAUAAU [FmnAX 13 G29+A66] | 209 | 203 | 221 | 267 | 209
ACGUCCCGUUUACUCGUGGGUUAGGUCGAUACCAGUAUUCAAACUUACCCUUGGCAGCGACAUGAGUGAUGUUCAUGUGCGAAGA [KL-XTheo-A5 #analogue] | 114 | 96.2 | 108 | 108 | 104
GUCUCAAAAGAGGCAAGCACUCACGAGGACAAGGAUAUCAUCUCAAUGAGAAGGUGUCCUCGUCCCUAGUGAUGUUAGGGAGUGC [Omei KL FMN A SS E v2] | 211 | 334 | 368 | 478 | 468
GCAUCCAUGGCAGGAUAUAGGUUCGUGGAGUGAUGUUCCAUAACCCGAGUGAUGUUCGUUAUCCACCUAGAAGGGCCAUGGAUGC [whbob_Ex_FMNB__2th211] | 212 | 204 | 218 | 215 | 184
UGGAGUUGACGAAAAGUCAACUCCCGAGAAGGAGCGGACGAAAGUCCAGGUAGGUCGCUCACUACCAGUGAUGUUGGUACUAAAA | 148 | 196 | 129 | 135 | 111
UGAUUGGCGAAAGUAGUGAUGUUACGAACAUAGGAUAUUAGAGGAAUAAGAAGGAUGAAUGAGAAAGGAAUAAAUUGUUGGUUGG [#08 K4 FMN A Same State] | 139 | 64 | 165 | 193 | 102
UAGCGAUGAAGUGAUACCAGAGAGUGAUGUUCUUUUUUUAUUCAGAAUACUGUCGCCUUGCUCCCUUGGCAGCACGCAGGCGCAG [theeternabot_exclusion_KL_Theo_B_18] | 206 | 255 | 258 | 311 | 171
GGAGAGAACUGAAGGAGCGCCAAGAGAGAAGGAAAUAUAGUGAUGUUAUAUAAGAGAGAGAGGCAGGUAGGUCGCAGAGGGAGGA [#03 K4 Arginine B Exclusion] | 185 | 162 | 127 | 175 | 112
UUUGUAUCGGGAAGGAGCGUGAAUGAUAAUGGAUAUAGUGAUGUUAUAUAUAAGAACGAAUCGCAGGUAGGUCGCCCGGAUGACU [SSArgB.Q] | 431 | 388 | 413 | 400 | 252
UGUGCCAAAUGUGAUACCAGCUUCCUGCAGUGAUGUUGCAUACGAGUGAUGUUCGUCCGAGGCCCUUGGCAGCGCAGUCGUUUGA [Same State Theophylline B GF 27] | 450 | 442 | 528 | 437 | 352
